According to PMC6609622, “Poly(ADP-ribose) polymerase-1 antagonizes DNA resection at double-strand breaks”:

Molecular target: PARP-1 (human, UniProt P09874 1-1014)
Assay: EMSA; 5 and 30 uM NAD+; remains bound; EMSA: 20 mM Na-HEPES pH 7.5, 0.1 mM DTT, 0.05% Triton X-100, 100 ug/mL BSA, 5 mM MgCl2, 2 mM ATP, 100 nM DNA, 37 C 10 min, then 0.2% glutaraldehyde 15 min; DNA
Details: protein: recombinant; label: 32P; blunt

Sequence of PARP-1 (P09874 whole entry): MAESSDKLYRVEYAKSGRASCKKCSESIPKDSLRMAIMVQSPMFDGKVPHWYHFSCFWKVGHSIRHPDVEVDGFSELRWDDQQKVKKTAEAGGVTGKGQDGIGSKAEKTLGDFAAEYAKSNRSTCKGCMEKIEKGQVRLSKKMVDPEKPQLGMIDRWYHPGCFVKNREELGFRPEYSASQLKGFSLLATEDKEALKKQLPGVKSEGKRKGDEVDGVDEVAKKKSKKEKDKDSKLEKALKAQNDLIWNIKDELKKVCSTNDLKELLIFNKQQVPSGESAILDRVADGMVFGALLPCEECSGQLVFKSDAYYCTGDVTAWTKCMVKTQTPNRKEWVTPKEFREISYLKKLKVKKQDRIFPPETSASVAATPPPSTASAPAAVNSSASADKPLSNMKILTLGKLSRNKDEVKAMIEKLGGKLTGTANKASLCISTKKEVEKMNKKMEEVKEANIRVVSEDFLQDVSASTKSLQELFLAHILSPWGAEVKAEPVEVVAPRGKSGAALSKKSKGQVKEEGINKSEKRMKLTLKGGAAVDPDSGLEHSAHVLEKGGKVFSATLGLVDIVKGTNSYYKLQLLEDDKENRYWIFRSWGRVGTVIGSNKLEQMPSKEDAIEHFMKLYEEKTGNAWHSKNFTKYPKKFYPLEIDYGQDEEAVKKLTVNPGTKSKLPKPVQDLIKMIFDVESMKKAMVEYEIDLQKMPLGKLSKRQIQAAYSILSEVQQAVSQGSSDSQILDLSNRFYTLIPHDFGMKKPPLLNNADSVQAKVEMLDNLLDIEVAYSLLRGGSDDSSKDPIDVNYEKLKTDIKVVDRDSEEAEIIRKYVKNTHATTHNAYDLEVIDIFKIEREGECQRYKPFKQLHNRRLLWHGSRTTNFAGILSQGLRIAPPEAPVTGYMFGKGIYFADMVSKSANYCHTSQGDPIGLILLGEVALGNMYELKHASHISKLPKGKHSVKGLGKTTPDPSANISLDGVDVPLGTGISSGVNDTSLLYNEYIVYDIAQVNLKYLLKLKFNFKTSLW

B1: JYM696/JYM698 (dsDNA)
DNA 1: GGGCGAATTGGGCCCGACGTCGCATGCTCCTCTAGACTCGAGGAATTCGGTACCCCGGGTTCGAAATCGATAAGCTTACAGTCTCCATTTAAAGGACAAG
DNA 2: CTTGTCCTTTAAATGGAGACTGTAAGCTTATCGATTTCGAACCCGGGGTACCGAATTCCTCGAGTCTAGAGGAGCATGCGACGTCGGGCCCAATTCGCCC
- binding result: binds
